Experimental data from article PMC6446838, “MAP7 family proteins regulate kinesin-1 recruitment and activation” (The Journal of Cell Biology, 2019).
Each block holds one binder with its values, some of them ahead of it.

B1: K560-GFP with C-terminal Strep-tag, purified (domain or fragment, human, UniProt P33176 1-560, looked up)
chain: MADLAECNIKVMCRFRPLNESEVNRGDKYIAKFQGEDTVVIASKPYAFDRVFQSSTSQEQVYNDCAKKIVKDVLEGYNGTIFAYGQTSSGKTHTMEGKLHDPEGMGIIPRIVQDIFNYIYSMDENLEFHIKVSYFEIYLDKIRDLLDVSKTNLSVHEDKNRVPYVKGCTERFVCSPDEVMDTIDEGKSNRHVAVTNMNEHSSRSHSIFLINVKQENTQTEQKLSGKLYLVDLAGSEKVSKTGAEGAVLDEAKNINKSLSALGNVISALAEGSTYVPYRDSKMTRILQDSLGGNCRTTIVICCSPSSYNESETKSTLLFGQRAKTIKNTVCVNVELTAEQWKKKYEKEKEKNKILRNTIQWLENELNRWRNGETVPIDEQFDKEKANLEAFTVDKDITLTNDKPATAIGVIGNFTDAERRKCEEEIAKLYKQLDDKDEEINQQSQLVEKLKTQMLDQEELLASTRRDQDNMQAELNRLQAENDASKEEVKEVLQALEELAVNYDQKSQEVEDKTKEYELLSDELNQKSATLASIDAELQKLKEMTNHQKKRAAEMMASLLK
notes: kinesin-1 heavy chain KIF5B, human, residues 1-560; pTT5 vector; also called KIF5B-560; source: HEK293T, transfected, purified (Strep(II)-streptactin, high-salt wash); not shown: GFP, C-terminal, kept

Columns and labels:
[1] = target: the molecule itself; assay: single-molecule fluorescence intensity analysis (TIRF); intensity of GFP-tagged kinesins moving on MTs compared with monomeric GFP, with or without MAP7 proteins; 30°C
[2] = target: the molecule itself; assay: SEC-MALS; Superdex 200 10/300, 10 mM Tris HCl pH 7.5, 150 mM NaCl, 20°C; 30 µl of protein at 5 mg/ml injected
[3] = target: B1; assay: cell-based or functional assay
[4] = target: T1, full-length KIF5B-GFP with C-terminal Strep-tag (human, UniProt P33176 1-963); assay: cell-based or functional assay
T1 sequence (looked up): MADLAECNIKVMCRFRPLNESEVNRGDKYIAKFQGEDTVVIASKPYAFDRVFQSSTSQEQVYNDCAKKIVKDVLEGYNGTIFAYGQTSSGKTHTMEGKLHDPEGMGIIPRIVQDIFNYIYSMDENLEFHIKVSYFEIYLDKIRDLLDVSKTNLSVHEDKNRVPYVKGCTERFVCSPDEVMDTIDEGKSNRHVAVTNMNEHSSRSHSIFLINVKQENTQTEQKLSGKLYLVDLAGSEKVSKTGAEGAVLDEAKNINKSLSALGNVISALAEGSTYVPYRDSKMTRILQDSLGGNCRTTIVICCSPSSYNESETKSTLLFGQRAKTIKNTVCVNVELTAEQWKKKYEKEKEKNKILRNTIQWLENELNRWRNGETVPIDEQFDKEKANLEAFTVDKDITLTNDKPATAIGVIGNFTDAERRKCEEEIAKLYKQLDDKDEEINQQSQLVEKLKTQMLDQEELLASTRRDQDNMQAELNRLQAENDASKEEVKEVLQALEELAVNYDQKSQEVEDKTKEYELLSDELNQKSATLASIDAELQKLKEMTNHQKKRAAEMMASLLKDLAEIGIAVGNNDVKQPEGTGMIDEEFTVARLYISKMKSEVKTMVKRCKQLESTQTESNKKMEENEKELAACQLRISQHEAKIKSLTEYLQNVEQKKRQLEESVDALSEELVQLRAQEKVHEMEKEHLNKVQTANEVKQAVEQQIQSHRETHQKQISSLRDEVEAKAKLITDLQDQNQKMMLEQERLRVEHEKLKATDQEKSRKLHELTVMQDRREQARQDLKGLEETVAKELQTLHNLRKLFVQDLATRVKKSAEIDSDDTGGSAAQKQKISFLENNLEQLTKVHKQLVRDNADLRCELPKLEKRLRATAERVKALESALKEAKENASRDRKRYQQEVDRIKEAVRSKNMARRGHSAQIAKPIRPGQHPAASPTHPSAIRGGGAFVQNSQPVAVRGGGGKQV

Binder: B1
stoichiometry N [1]: 2

B2: KIF5B fragment (minimal binding construct for SEC-MALS and ITC) (domain or fragment)
chain: CEEEIAKLYKQLDDKDEEINQQSQLVEKLKTQMLDQEELLASTRRDQDNMQAELNRLQAENDASKEEVKEVLQALEELAVNYDQKSQEVEDKTKEYELLSDEL
stoichiometry N [2]: 2

landing frequency of K560-GFP on MAP-decorated dynamic MTs in vitro, increasing MAP concentrations, against K560 alone [3]: ≤ 23.6 fold | processivity (run length) of K560-GFP on dynamic MTs in vitro [3]: 2 fold | events of full-length KIF5B-GFP on dynamic MTs in vitro (short binding events and landing followed by processive movement), with MAP against kinesin alone [4]: ≥ 60 fold | run length of full-length KIF5B-GFP on dynamic MTs in vitro, with MAP against kinesin alone [4]: ~1.6 fold
B3: Alexa Fluor 647–labeled SNAP-tag-MAP7D3, full length (natural protein, UniProt Q8IWC1 1-876, looked up)
chain: MMADGAAAGAGGSPSLRELRARMVAAANEIAKERRKQDVVNRVATHSSNIRSTFKPVIDGSMLKNDIKQRLARERREEKRRQQDANKETQLLEKERKTKLQYEKQMEERQRKLKERKEKEEQRRIAAEEKRHQKDEAQKEKFTAILYRTLERRRLADDYQQKRWSWGGSAMANSESKTANKRSASTEKLEQGTSALIRQMPLSSAGLQNSVAKRKTDKERSSSLNRRDSNLHSSTDKEQAERKPRVTGVTNYVMQYVTVPLRKCTSDELRAVMFPMSTMKIPPQTKVEESPLEKVETPPKASVDAPPQVNVEVFCNTSMEASPKAGVGMAPEVSTDSFPVVSVDVSPVVSTYDSEMSMDASPELSIEALPKVDLETVPKVSIVASPEASLEAPPEVSLEALPEVSVEAAPEGSLEAPPKGSAEVAPKESVKGSPKESMEASPEAMVKASPKTSLEASMEASPKAKARDAPKKSEMDKQALIPIAKKRLSSYTECYKWSSSPENACGLPSPISTNRQIQKNCPPSPLPLISKQSPQTSFPYKIMPIQHTLSVQSASSTVKKKKETVSKTTNRCEALSQRHMIYEESGNKSTAGIMNAEAATKILTELRRLAREQREKEEEERQREEMQQRVIKKSKDMAKEAVGGQAEDHLKLKDGQQQNETKKKKGWLDQEDQEAPLQKGDAKIKAQEEADKRKKEHERIMLQNLQERLERKKRIEEIMKRTRKTDVNASKVTETSSHDIYEEAEADNEESDKDSLNEMFPSAILNGTGSPTKFKMPFNNAKKMTHKLVFLEDGTSQVRKEPKTYFNGDLKNFRQKSMKDTSIQEVVSRPSSKRMTSHTTKTRKADETNTTSRSSAQTKSEGFHDILPKSSDTFRQ
modifications: Alexa Fluor 647 on the SNAP-tag

B4: K370-GFP with C-terminal Strep-tag, purified (domain or fragment)
chain: not shown
notes: kinesin-1 heavy chain KIF5B, human, residues 1-370; pEGFP-N1 vector; also called KIF5B 1–370; source: HEK293T, transfected, purified (Strep(II)-streptactin); not shown: GFP, C-terminal, kept
stoichiometry N [1]: 2
